In patent US20160169910A1:

Tests used:
[1] = target: suPAR in human plasma from FSGS patients (human) (UniProt Q03405); experiment: immunodepletion of FSGS plasma, remaining suPAR measured by R&D ELISA
protein G-agarose beads = protein G-agarose beads (UniProt P06654); experiment: mock depletion of FSGS plasma with protein G-agarose beads only, R&D ELISA

Sequence of suPAR in human plasma from FSGS patients (Q03405 23-305 limits assumed): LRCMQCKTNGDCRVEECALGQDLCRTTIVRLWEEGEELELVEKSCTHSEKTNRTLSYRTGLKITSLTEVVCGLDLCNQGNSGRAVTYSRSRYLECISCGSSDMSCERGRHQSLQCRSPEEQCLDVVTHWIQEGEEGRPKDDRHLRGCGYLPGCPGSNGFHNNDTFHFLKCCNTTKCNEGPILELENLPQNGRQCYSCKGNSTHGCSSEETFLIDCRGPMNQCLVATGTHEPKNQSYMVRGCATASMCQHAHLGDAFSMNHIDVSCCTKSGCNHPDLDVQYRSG
Sequence of suPAR in human plasma from FSGS patients (human) (Q03405 23-305 limits assumed): as above

Row | percent of suPAR removed from human plasma [1] [%] | percent lowering of suPAR level in plasma (protein G-agarose beads) [%] | Substance
1 | > 99 |  | mouse monoclonal anti-suPAR antibody ATN615
2 |  | 20 to 50 | suPAR in human plasma from FSGS patients (from UniProt Q03405 23-305) (receptor)
